Reference: the supplement of paper PMC12338614
± gives the uncertainty stated by the source.

B1: library; numbered along this chain (parent)
chain: MEVVDPQQLGMFTEGELMSVGMDTFIHRIDSTEVIYQPRRKRAKLIGKYLMGDLLGEGSYGKVKEVLDSETLCRRAVKILKKKKLRRIPNGEANVKKEIQLLRRLRHKNVIQLVDVLYNEEKQKMYMVMEYCVCGMQEMLDSVPEKRFPVCQAHGYFCQLIDGLEYLHSQGIVHKDIKPGNLLLTTGGTLKISDLGVAEALHPFAADDTCRTSQGSPAFQPPEIANGLDTFSGFKVDIWSAGVTLYNITTGLYPFEGDNIYKLFENIGKGSYAIPGDCGPPLSDLLKGMLEYEPAKRFSIRQIRQHSWFRKKHPPAEAPVPIPPSPDTKDRWRSMTVVPYLEDLHGADEDEDLFDIEDDIIYTQDFTVPGQVPEEEASHNGQRRGLPKAVCMNGTEAAQLSTKSRAEGRAPNPARKACSASSKIRRLSACKQQ

Variants of: B1
Assay: STK11 functional score (HeLa growth suppression), rescaled enrichment; synonymous median = 1, nonsense median = 0 (normalised score)
Settings: with HeLa; variant type: missense
Outline: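 The values are functional scores: wild-type-corrected log ratios of post- versus pre-selection abundance, rescaled to synonymous and nonsense medians, merged over codons and replicate transfections, and carrying bootstrapped error. They derive from codon-randomised (POPCode), codon-optimised STK11 libraries that Bxb1 integrated at an AAVS1 landing pad in HeLa, with three transfections for each of three regions. Sequencing of tiled gDNA amplicons ran on NextSeq, at ~2 million reads per tile.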
With R310H the STK11 functional score was 1.5 ± 0.18. T336D showed an STK11 functional score of 0.148 ± 0.11. Variant T336M has an STK11 functional score of 0.732 ± 0.077. Work on V197R yielded an STK11 functional score of 1 ± 0.12. For V197C, the STK11 functional score was 1.55 ± 0.22. Variant N90S has an STK11 functional score of 1.21 ± 0.14. P323R gave an STK11 functional score of 1.01 ± 0.38. T249M was tested, and the STK11 functional score was 1.47 ± 0.2. Work on N181Y yielded an STK11 functional score of -0.0251 ± 0.098. M127V gave an STK11 functional score of 0.95 ± 0.26. Work on R426V yielded an STK11 functional score of 1.62 ± 0.26. In the case of V3G, the STK11 functional score is reported as 1.47 ± 0.26. T32W showed an STK11 functional score of 1.52 ± 0.2. Work on D141E yielded an STK11 functional score of 0.883 ± 0.17. D330T was tested, and the STK11 functional score was 1.59 ± 0.27. In the case of D330Q, the STK11 functional score is reported as 0.163 ± 0.59. Work on E374T yielded an STK11 functional score of 1.52 ± 0.31. Variant E374H has an STK11 functional score of 1.06 ± 0.53. Work on E374Q yielded an STK11 functional score of 0.822 ± 0.78. V320L showed an STK11 functional score of 0.723 ± 0.1. D355A gave an STK11 functional score of 0.938 ± 0.15. Y36V was tested, and the STK11 functional score was 0.824 ± 0.12. With N412F the STK11 functional score was 1.23 ± 0.15. N412Q was tested, and the STK11 functional score was 1.37 ± 0.27. D284M was tested, and the STK11 functional score was 1.19 ± 0.42. V95T showed an STK11 functional score of 1.62 ± 0.22. In the case of D176R, the STK11 functional score is reported as -0.0226 ± 0.15. D176T was tested, and the STK11 functional score was -0.105 ± 0.43. Work on D176Y yielded an STK11 functional score of -0.343 ± 0.096. Variant I248L has an STK11 functional score of 1.05 ± 0.18. Variant I248H has an STK11 functional score of -0.139 ± 0.09. S232C gave an STK11 functional score of 1.17 ± 0.22. Work on L9M yielded an STK11 functional score of 1.01 ± 0.32. Work on L9N yielded an STK11 functional score of 1.67 ± 0.14. With L9C the STK11 functional score was 1.54 ± 0.14. With L9F the STK11 functional score was 1.06 ± 0.19. Q364W showed an STK11 functional score of 0.791 ± 0.5. Variant Q371V has an STK11 functional score of 1.49 ± 0.2. Work on Q371Y yielded an STK11 functional score of 1.04 ± 0.54. R333D showed an STK11 functional score of 1.62 ± 0.25. With Y131R the STK11 functional score was 0.218 ± 0.086. G279F was tested, and the STK11 functional score was 1.27 ± 0.17. Variant N94M has an STK11 functional score of 0.437 ± 0.077. N94C was tested, and the STK11 functional score was 1.1 ± 0.2. For G196V, the STK11 functional score was 1.08 ± 0.12. T244L showed an STK11 functional score of 1.02 ± 0.094. With L286Y the STK11 functional score was 1.36 ± 0.45. Work on E120P yielded an STK11 functional score of 1.42 ± 0.28. K97T was tested, and the STK11 functional score was 1.32 ± 0.48. M18C was tested, and the STK11 functional score was 0.902 ± 0.4. Work on T71P yielded an STK11 functional score of 0.376 ± 0.19. P315L was tested, and the STK11 functional score was 1.42 ± 0.18. Variant C391L has an STK11 functional score of 1.54 ± 0.24. With A429I the STK11 functional score was 1.63 ± 0.27. Work on Q137T yielded an STK11 functional score of 1.6 ± 0.28. Variant F234D has an STK11 functional score of 1.18 ± 0.1. Work on T185V yielded an STK11 functional score of 0.913 ± 0.25. T186F showed an STK11 functional score of 1.33 ± 0.17. Work on K124D yielded an STK11 functional score of 0.919 ± 0.5. Variant V143W has an STK11 functional score of 0.622 ± 0.081. With I79W the STK11 functional score was -0.0803 ± 0.077. Variant Y246A has an STK11 functional score of 1.06 ± 0.1. I238F was tested, and the STK11 functional score was 0.0789 ± 0.1. For L344F, the STK11 functional score was 0.831 ± 0.38. Work on L344R yielded an STK11 functional score of 1.46 ± 0.25. L344S showed an STK11 functional score of 1.43 ± 0.18. With E265T the STK11 functional score was 1.56 ± 0.25. Q37C gave an STK11 functional score of 0.0953 ± 0.088. E145T was tested, and the STK11 functional score was 1.54 ± 0.17. Variant T209Q has an STK11 functional score of 1.5 ± 0.5. E293T showed an STK11 functional score of 1.3 ± 0.31. Work on G171N yielded an STK11 functional score of 1.69 ± 0.14. Variant P373E has an STK11 functional score of 1.51 ± 0.31. Variant E317G has an STK11 functional score of 1.56 ± 0.17. For K269V, the STK11 functional score was 1.22 ± 0.43. V116H was tested, and the STK11 functional score was 1.18 ± 0.58. In the case of V116S, the STK11 functional score is reported as 0.887 ± 0.14. K388D showed an STK11 functional score of 1.31 ± 0.46. With P275S the STK11 functional score was 0.957 ± 0.27. In the case of P275R, the STK11 functional score is reported as 1.12 ± 0.28. For N109G, the STK11 functional score was 0.374 ± 0.15. Work on P203L yielded an STK11 functional score of 1.27 ± 0.73. In the case of K44D, the STK11 functional score is reported as 0.859 ± 0.084. Work on E165M yielded an STK11 functional score of 0.0982 ± 0.39. For S69G, the STK11 functional score was 1.69 ± 0.28. For L17T, the STK11 functional score was 1.62 ± 0.18. Variant M289L has an STK11 functional score of 0.831 ± 0.11. With R40M the STK11 functional score was 1.28 ± 0.43. V63I showed an STK11 functional score of 1.45 ± 0.27. C210F gave an STK11 functional score of 1.04 ± 0.12. In the case of H174L, the STK11 functional score is reported as 0.234 ± 0.067. With H174S the STK11 functional score was 0.695 ± 0.29. L80Y was tested, and the STK11 functional score was 1.13 ± 0.23. S213Y was tested, and the STK11 functional score was 1.34 ± 0.28. For R425T, the STK11 functional score was 1.52 ± 0.27. V243F showed an STK11 functional score of 0.591 ± 0.095. D207W gave an STK11 functional score of 0.239 ± 0.18. Work on A316V yielded an STK11 functional score of 0.768 ± 0.24. Work on A316W yielded an STK11 functional score of 0.538 ± 0.091. Variant K416I has an STK11 functional score of 1.55 ± 0.19. V66K gave an STK11 functional score of 1.4 ± 0.37. With G385V the STK11 functional score was 0.433 ± 0.12. S283T gave an STK11 functional score of 1.47 ± 0.17. Y292C showed an STK11 functional score of 0.438 ± 0.15. L195S was tested, and the STK11 functional score was 0.972 ± 0.13. Work on F366Y yielded an STK11 functional score of 1.24 ± 0.65. Variant C151G has an STK11 functional score of 0.587 ± 0.11. V338G showed an STK11 functional score of 1.18 ± 0.3. For V338C, the STK11 functional score was 0.965 ± 0.28. D365F was tested, and the STK11 functional score was 0.997 ± 0.31. With A218V the STK11 functional score was 1.07 ± 0.19. With A218M the STK11 functional score was 1.35 ± 0.59. Variant I360G has an STK11 functional score of 1.44 ± 0.23. With L182T the STK11 functional score was 1.12 ± 0.39. Variant A153R has an STK11 functional score of 0.204 ± 0.096. Work on P149S yielded an STK11 functional score of 0.988 ± 0.13. Variant H107I has an STK11 functional score of 0.0231 ± 0.17. R383S showed an STK11 functional score of 1.3 ± 0.17. With D359Y the STK11 functional score was 1.13 ± 0.21. Y340K showed an STK11 functional score of 1.6 ± 0.14. Variant L167S has an STK11 functional score of 0.241 ± 0.14. In the case of L167W, the STK11 functional score is reported as -0.183 ± 0.049. Variant R39M has an STK11 functional score of 1.58 ± 0.16. N119M showed an STK11 functional score of 0.408 ± 0.074. For S404H, the STK11 functional score was 1.6 ± 0.28. S404D was tested, and the STK11 functional score was 1.18 ± 0.3. Y362M was tested, and the STK11 functional score was 1.61 ± 0.21. K78C gave an STK11 functional score of 0.21 ± 0.078. Work on R304F yielded an STK11 functional score of 0.0963 ± 0.15. Variant F309V has an STK11 functional score of 0.0641 ± 0.1. L105P was tested, and the STK11 functional score was 0.588 ± 0.23. In the case of D327A, the STK11 functional score is reported as 1.28 ± 0.52. Work on I424D yielded an STK11 functional score of 1.54 ± 0.2. I424L was tested, and the STK11 functional score was 1.34 ± 0.18. Work on K403V yielded an STK11 functional score of 0.598 ± 0.14. A398N gave an STK11 functional score of 1.15 ± 0.19. With E351M the STK11 functional score was 0.992 ± 0.19. Variant I303N has an STK11 functional score of 1.54 ± 0.61. Work on W332E yielded an STK11 functional score of 1.61 ± 0.29. For A406T, the STK11 functional score was 1.42 ± 0.35. For I361K, the STK11 functional score was 0.624 ± 0.65. With Y156Q the STK11 functional score was 0.148 ± 0.081. In the case of Y156G, the STK11 functional score is reported as 0.044 ± 0.076. Variant T189W has an STK11 functional score of 1.2 ± 0.13. Variant I99V has an STK11 functional score of 0.876 ± 0.11. In the case of M139C, the STK11 functional score is reported as 1.29 ± 0.23. In the case of V372N, the STK11 functional score is reported as 1.54 ± 0.25. E291V gave an STK11 functional score of 1.28 ± 0.14. With L228A the STK11 functional score was 1.66 ± 0.14. In the case of G187V, the STK11 functional score is reported as 0.795 ± 0.26. Variant K81H has an STK11 functional score of 1.25 ± 0.083. Variant G56P has an STK11 functional score of 0.136 ± 0.092. With D115S the STK11 functional score was 1.6 ± 0.15. L353C was tested, and the STK11 functional score was 1.17 ± 0.72. I88T was tested, and the STK11 functional score was 1.48 ± 0.39. With F354H the STK11 functional score was 1.34 ± 0.28. Variant I224K has an STK11 functional score of 1.19 ± 0.26. A347F gave an STK11 functional score of 1.37 ± 0.25. In the case of P324L, the STK11 functional score is reported as 1.37 ± 0.19. P280G showed an STK11 functional score of 1.46 ± 0.23. Variant P280W has an STK11 functional score of 0.665 ± 0.16. In the case of V34I, the STK11 functional score is reported as 1.1 ± 0.34. With R75C the STK11 functional score was 1.55 ± 0.091. For L282D, the STK11 functional score was 1.26 ± 0.5. Variant A410D has an STK11 functional score of 1.17 ± 0.1. Q7I gave an STK11 functional score of 1.61 ± 0.17. With E349V the STK11 functional score was 1.16 ± 0.37.
